Results taken from article PMC7191749, “Low phosphatase activity of LiaS and strong LiaR-DNA affinity explain the unusual LiaS to LiaR in vivo stoichiometry” (BMC Microbiology, 2020).

What was measured:
[1] = system: LiaR (Bacillus subtilis 168); experiment: EMSA; conditions: 5 mM Mg2+; unphosphorylated; EMSA: 10 mM Tris pH 7.5, 50 mM KCl, 1 mM DTT, 5 mM MgCl2, 10 ng herring sperm DNA, 2.5% glycerol, 25 C, 30 min, 9% native PAGE; footprinting as in ref 35
[2] = system: LiaRC (effector domain) (Bacillus subtilis 168); experiment: EMSA; conditions: 5 mM Mg2+; EMSA: 10 mM Tris pH 7.5, 50 mM KCl, 1 mM DTT, 5 mM MgCl2, 10 ng herring sperm DNA, 2.5% glycerol, 25 C, 30 min, 9% native PAGE; footprinting as in ref 35
[3] = target: T1, LiaR^N (RD of LiaR) (Bacillus subtilis, UniProt O32197); experiment: phosphorylation by acetyl phosphate; type: biochemical; conditions: covalent phosphorylation of the stand-alone receiver domain
T1 construct: receiver domain, tagless, Gly-131 codon changed to stop (residues 1-130); pET26b, E. coli BL21(DE3); calculated mass 14,029 (printed as kD)

[4] = target: T2, LiaS (GST-LiaS, liaS^126) (Bacillus subtilis, UniProt O32198); experiment: autophosphorylation, […] incorporation by SDS-PAGE phosphorimaging, kobs against ATP; type: biochemical; conditions: labelled compound; pH 7.4, 50 mM KCl, 5 mM MgCl2, 10 mM CaCl2, 25 °C; 5 μM LiaS; 10-250 μM ATP; apparent dissociation constant from kinetics; read-out: KS
T2 construct: cytoplasmic domain, residues 126-360 (TM and HAMP removed), fused to C-terminus of GST; pGEX-4T-1, E. coli BL21(DE3); calculated mass 52,431 (printed as kD)

[5] = target: T3, VraR (Staphylococcus aureus) (UniProt Q7A2Q1); experiment: DNase I footprinting; conditions: EMSA: 10 mM Tris pH 7.5, 50 mM KCl, 1 mM DTT, 5 mM MgCl2, 10 ng herring sperm DNA, 2.5% glycerol, 25 C, 30 min, 9% native PAGE; footprinting as in ref 35
T3 sequence: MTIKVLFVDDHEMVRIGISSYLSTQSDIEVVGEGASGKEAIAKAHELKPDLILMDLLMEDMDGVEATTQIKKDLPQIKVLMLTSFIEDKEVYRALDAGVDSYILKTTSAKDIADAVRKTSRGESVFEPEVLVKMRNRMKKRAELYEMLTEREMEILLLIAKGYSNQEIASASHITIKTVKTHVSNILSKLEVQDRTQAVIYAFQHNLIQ

[6] = target: T4, LiaR (Bacillus subtilis 168) (UniProt O32197); experiment: DNase I footprinting; conditions: EMSA: 10 mM Tris pH 7.5, 50 mM KCl, 1 mM DTT, 5 mM MgCl2, 10 ng herring sperm DNA, 2.5% glycerol, 25 C, 30 min, 9% native PAGE; footprinting as in ref 35
T4 sequence: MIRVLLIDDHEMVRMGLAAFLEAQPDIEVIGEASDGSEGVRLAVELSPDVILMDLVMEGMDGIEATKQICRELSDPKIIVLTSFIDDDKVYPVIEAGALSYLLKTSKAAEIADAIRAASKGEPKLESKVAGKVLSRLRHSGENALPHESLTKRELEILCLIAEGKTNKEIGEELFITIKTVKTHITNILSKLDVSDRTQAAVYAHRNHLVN

[7] = target: T5, LiaRC (effector domain) (Bacillus subtilis 168) (UniProt O32197); experiment: EMSA; conditions: EMSA: 10 mM Tris pH 7.5, 50 mM KCl, 1 mM DTT, 5 mM MgCl2, 10 ng herring sperm DNA, 2.5% glycerol, 25 C, 30 min, 9% native PAGE; footprinting as in ref 35
T5 sequence: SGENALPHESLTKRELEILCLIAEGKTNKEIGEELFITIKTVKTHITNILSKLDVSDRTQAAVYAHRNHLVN

[8] = target: T4, LiaR (Bacillus subtilis 168); experiment: EMSA; conditions: EMSA: 10 mM Tris pH 7.5, 50 mM KCl, 1 mM DTT, 5 mM MgCl2, 10 ng herring sperm DNA, 2.5% glycerol, 25 C, 30 min, 9% native PAGE; footprinting as in ref 35
[9] = target: the molecule itself; experiment: native-PAGE

T2 sequence (O32198 126-360): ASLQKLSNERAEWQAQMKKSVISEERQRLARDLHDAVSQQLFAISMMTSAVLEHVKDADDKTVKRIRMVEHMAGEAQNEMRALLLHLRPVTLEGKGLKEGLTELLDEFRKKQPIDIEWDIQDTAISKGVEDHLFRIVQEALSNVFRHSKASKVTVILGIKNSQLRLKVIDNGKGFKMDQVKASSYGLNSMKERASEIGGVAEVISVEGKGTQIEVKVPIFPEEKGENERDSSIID

Q: With PliaI (-162 to +31) as the molecule, how does the Kd [1] read?
A: 0.2 µM

Q: What about the Kd [2] of the same molecule?
A: 20 µM

Q: `CC(=O)OP(=O)(O)O` [acetyl phosphate] was tested. Which “phosphorylation by acetyl phosphate” value [3] did it give?
A: RD of LiaR also underwent phosphorylation by acetyl phosphate

Q: Which Kd [4] does the source give for `Nc1ncnc2c1ncn2[C@@H]1O[C@H](COP(=O)(O)OP(=O)(O)OP(=O)(O)O)[C@@H](O)[C@H]1O` [ATP] here?
A: 7 ± 1 µM

Q: With “TTCATGCAGATCCTCCTTTCGTTTTCCTTGTCTTCATCTTATACAAGTTGGAAGATATGCAAAACGAATCAGAGATTGATTTTTATATAAGACCGGAGTCGTATCTCGCACCGGACCCATTGGCACAAAAAAACGCCATGCACGAGGCATGGCGTTTTAAAACCCTTTACAGATGAACACTTGCTTCCCTTTC (double strand) [PliaI (-162 to +31)]” as the molecule, how does the binding [5] read?
A: binds

Q: What about the binding [6] of the same molecule?
A: binds

Q: And the Kd [7]?
A: 20 µM

Q: What about the Kd [8] of the same molecule?
A: 0.2 µM

B1: LiaR 1-211 (protein)
chain: MIRVLLIDDHEMVRMGLAAFLEAQPDIEVIGEASDGSEGVRLAVELSPDVILMDLVMEGMDGIEATKQICRELSDPKIIVLTSFIDDDKVYPVIEAGALSYLLKTSKAAEIADAIRAASKGEPKLESKVAGKVLSRLRHSGENALPHESLTKRELEILCLIAEGKTNKEIGEELFITIKTVKTHITNILSKLDVSDRTQAAVYAHRNHLVN
Q: B1 was tested. Which Kd [9] did it give?
A: > 20 µM
